From article PMC7383930 (Journal of Medicinal Chemistry, 2020)

Assays:
[1] = biological target: PSMA on PC3-PIP (PSMA+) prostate cancer cells (Homo sapiens, UniProt Q04609); assay: cell-based or functional assay
[2] = biological target: purified extracellular domain of PSMA (prostate-specific membrane antigen), residues 44–750 (human, UniProt Q04609); assay: SPR; ProteOn XPR36 chip; each NB (0.2 μg) immobilised by amine coupling (sulfo-NHS/EDC, 10 mM sodium acetate pH 5.0); soluble PSMA flowed at 25 μL/min (25-3200 pM for NB7; 2.94-47.00 nM for NB8, NB13, NB37); dissociation in PBST (0.005% Tween); BSA surface subtracted; Langmuir 1:1 kinetic model; 25 °C; conditions: both partners purified
Sequence of purified extracellular domain of PSMA (prostate-specific membrane antigen), residues 44–750 (Q04609 44-750): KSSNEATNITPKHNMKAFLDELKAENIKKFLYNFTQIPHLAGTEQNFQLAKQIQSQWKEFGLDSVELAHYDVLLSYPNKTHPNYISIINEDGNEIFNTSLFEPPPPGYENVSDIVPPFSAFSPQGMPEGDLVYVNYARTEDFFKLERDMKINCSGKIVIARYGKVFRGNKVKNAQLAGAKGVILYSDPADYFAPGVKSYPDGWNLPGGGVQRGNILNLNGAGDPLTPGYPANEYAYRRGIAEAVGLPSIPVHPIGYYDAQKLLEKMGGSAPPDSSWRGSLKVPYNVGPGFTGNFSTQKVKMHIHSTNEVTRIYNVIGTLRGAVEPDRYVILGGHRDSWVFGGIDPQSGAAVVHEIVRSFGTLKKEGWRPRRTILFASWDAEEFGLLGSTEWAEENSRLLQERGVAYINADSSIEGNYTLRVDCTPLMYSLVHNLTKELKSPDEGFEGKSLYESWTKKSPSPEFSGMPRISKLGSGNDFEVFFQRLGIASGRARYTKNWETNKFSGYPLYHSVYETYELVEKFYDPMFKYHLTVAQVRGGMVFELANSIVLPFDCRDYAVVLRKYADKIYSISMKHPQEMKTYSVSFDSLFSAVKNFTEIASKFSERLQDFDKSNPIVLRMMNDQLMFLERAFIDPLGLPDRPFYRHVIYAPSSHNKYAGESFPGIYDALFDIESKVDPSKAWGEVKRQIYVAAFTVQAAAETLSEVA

Sequence of PSMA on PC3-PIP (PSMA+) prostate cancer cells (Q04609 whole entry, the tested form may be a part): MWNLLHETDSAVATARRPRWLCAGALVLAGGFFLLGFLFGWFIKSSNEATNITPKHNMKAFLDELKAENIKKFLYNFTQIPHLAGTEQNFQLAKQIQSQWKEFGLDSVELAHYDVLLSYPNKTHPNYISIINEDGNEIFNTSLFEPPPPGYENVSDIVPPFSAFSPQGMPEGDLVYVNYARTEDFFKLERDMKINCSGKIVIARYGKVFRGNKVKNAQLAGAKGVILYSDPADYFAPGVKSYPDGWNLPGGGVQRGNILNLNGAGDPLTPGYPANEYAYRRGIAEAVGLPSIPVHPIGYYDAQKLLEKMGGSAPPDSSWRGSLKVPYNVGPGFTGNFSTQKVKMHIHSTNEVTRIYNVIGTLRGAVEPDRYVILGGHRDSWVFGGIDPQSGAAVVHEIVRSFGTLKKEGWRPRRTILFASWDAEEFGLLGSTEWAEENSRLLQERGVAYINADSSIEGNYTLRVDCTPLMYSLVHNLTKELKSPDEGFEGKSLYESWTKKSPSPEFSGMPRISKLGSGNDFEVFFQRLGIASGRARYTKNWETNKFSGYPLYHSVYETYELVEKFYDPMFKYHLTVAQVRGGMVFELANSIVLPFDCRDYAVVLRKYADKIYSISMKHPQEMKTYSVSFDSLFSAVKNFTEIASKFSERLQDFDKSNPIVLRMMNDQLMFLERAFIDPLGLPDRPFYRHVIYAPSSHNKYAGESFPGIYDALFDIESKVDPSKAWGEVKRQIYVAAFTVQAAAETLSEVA

| whole-body NIR imaging of mice with PC3-PIP xenografts, AF680-labelled NB: duration until the fluorescent signal was no longer detected [1] | Kd [2] | koff [2] | kon [2] | Binder |
| --- | --- | --- | --- | --- |
| 24 h | 3.4 nM | 7.5e-05 s⁻¹ | 22000 M⁻¹ s⁻¹ | NB37 (VHH) VHH: QVQLQESGGGSVEAGGSLRLSCARSGWPYSTYSMNWFRQAPGKEREAVAGISSTMSGIIFAESKAGQFTISQDNAKNTVYLQMNNLKPEDTAIYYCAARRDYSLSSSSDDFDYWGQGTQVTVSS |
| 32 h | 6 nM | 0.00012 s⁻¹ | 20000 M⁻¹ s⁻¹ | NB8 (VHH) VHH: QVQLQESGGGSVQAGGSLRLSCARSGWPYSTYSMNWFRQAPGKEREAVAGISSTMSGIIFAESKAGQFTISQDNAKNTVYLQMNNLKPEDTAIYYCAARRDYSLSSSSDDFDYWGQGTQVTVSS |
| 32 h | 0.6 nM | 2.2e-05 s⁻¹ | 36000 M⁻¹ s⁻¹ | NB13 (VHH) VHH: QVQLQESGGGSVQTGGSLRLSCAASGYTASFSWIGYFRQAPGKEREGVAVINVGVGSTYYADSVKGRFTISRDNTENTISLEMNSLKPEDTGLYYCAGSLRWSRPPNPISEDAYNYWGQGTQVTVSS |
|  | 0.055 nM | 3.9e-05 s⁻¹ | 710000 M⁻¹ s⁻¹ | NB7 (VHH) VHH: QVQLQESGGGSVQAGGSLRLSCTAPGYTDSNYYMSWFRQAPGKEREWVAGVNTGRGSTSYADSVKGRFTISQDNAKNTMFLQMNSLKPEDTAIYYCAVAACHFCDSLPKTQDEYILWGQGTQVTVSS |
